In the MegaScale stability set (Tsuboyama et al. 2023):

B1: HHH_rd2_0155 (parent)
chain: PPDDERKKAEKAARSGNEEKAREILERLGYSEDEARELAKRLR
B2: 6NMW (parent)
chain: QGDIVVALYPYDGIHPDDLSFKKGEKMKVLEEHGEWWKAKSLLTKKEGFIPSNYVAKLN

Variants of: B1
Assay: folding stability dG (cDNA display proteolysis); higher = more stable
Conditions: PBS, room temperature

Folding stability dG [kcal/mol], by site and new letter:
A9: R 0.946 | F 1.27 | T 1.05 | I 1.25 | E 1.03 | V 1.29 | C 1.45 | S 1.02 | D 0.819 | G 1.13 | P 1.13 | N 0.839 | Q 0.885 | K 0.809 | H 1.18 | W 1.53 | Y 1.47 | M 1.05 | L 1.33
E10: N 1.29 | I 2.4 | V 2.23 | Q 1.93 | T 1.82 | A 2.3 | D 1.22 | W 2.31 | S 1.66 | G 1.58 | P 1.05 | Y 2.44 | H 1.75 | F 2.16 | R 2.03 | L 2.38 | M 2.33 | K 1.78
K7: L 2.17 | R 2.25 | C 2.17 | Y 1.91 | N 1.85 | M 2.21 | I 2.08 | E 1.98 | T 2.17 | H 1.85 | S 1.94 | D 1.7 | A 2.1 | Q 2.18 | P 1.16 | V 2.02 | G 1.76 | W 2.15 | F 1.89
A13: I 1.46 | M 1.35 | Y 1.35 | G 1.07 | D 0.978 | F 1.5 | H 1 | Q 0.906 | S 1.13 | T 1.15 | P 0.95 | R 0.884 | V 1.19 | L 1.54 | W 1.82 | N 0.717 | E 0.902 | K 0.841
S15: E 2.53 | T 1.8 | C 2.15 | D 2.23 | L 1.95 | K 1.59 | A 2.26 | H 1.83 | R 2.05 | V 1.55 | I 1.57 | P 0.861 | F 1.65 | N 2.09 | G 1.86 | W 1.83 | Q 2.21 | M 2.26
R6: G 1.11 | F 3.38 | N 1.17 | M 3.24 | A 1.63 | W 3.4 | L 3 | S 1.3 | P 0.99 | I 2.63 | D 0.9 | Y 3.31 | Q 1.73 | K 1.75 | H 2.1 | V 2.27 | T 1.54 | E 1.54
P2: D 2.21 | R 2.17 | A 2.18 | Y 2.29 | M 2.23 | G 2.04 | F 2.35 | C 2.29 | N 2.15 | W 2.29 | T 2.02 | L 2.14 | H 2.24 | Q 2.15 | V 2.2 | K 2.11 | E 2.24 | S 1.97 | I 2.25
P1: M 2.17 | L 2.24 | I 2.12 | Y 2.24 | F 2.22 | A 2.22 | W 2.33 | N 2.41 | V 2.13 | Q 2.2 | K 2.14 | R 2.21 | S 2.35 | E 2.2 | G 2.26 | T 2.36 | H 2.29 | D 2.36
R14: P 0.9 | A 1.78 | T 1.41 | N 1.3 | W 1.77 | Q 1.89 | H 1.6 | Y 1.73 | L 1.79 | D 1.01 | M 1.96 | S 1.44 | I 1.84 | E 1.32 | K 2.08 | G 1.04 | V 1.75 | F 1.6
D3: P 1.89 | G 1.98 | W 2.1 | E 2.14 | Q 1.92 | S 2.08 | V 1.85 | C 2.41 | Y 1.93 | F 1.79 | L 2.06 | I 1.95 | R 1.75 | M 2.02 | H 1.9 | T 1.95 | K 1.73 | N 1.98 | A 1.91
K11: F 2.01 | V 2.19 | I 2.45 | L 2.35 | S 1.97 | R 2.47 | N 2.11 | G 1.39 | D 2.38 | C 2.29 | Q 2.36 | E 2.5 | T 2.11 | W 2.14 | P 0.889 | H 2.32 | Y 2.14 | A 2.43 | M 2.48
E5: L 2.65 | S 1.8 | P 1.8 | H 1.5 | M 2.33 | I 1.51 | F 1.88 | Y 1.81 | N 1.5 | A 1.86 | V 1.61 | Q 1.91 | G 1.65 | W 2.35 | K 1.45 | T 1.73 | D 2.01 | R 1.66
D4: E 2.26 | I 2.17 | S 2.16 | L 2.22 | F 2.02 | K 1.95 | P 1.88 | V 2.06 | N 1.9 | R 1.98 | Y 1.93 | A 2.09 | W 2.09 | C 2.15 | T 2.17 | H 1.88 | Q 2.04 | M 1.97 | G 1.75
K8: P 1.14 | H 1.94 | D 1.86 | Y 1.62 | G 1.36 | E 2.26 | Q 2.19 | I 1.84 | T 1.81 | L 2.22 | F 1.75 | W 1.97 | M 2.18 | A 2.18 | R 2.15 | S 1.84 | N 1.99 | V 1.77
A12: T 1.24 | H 1.9 | I 1.61 | S 1.34 | Y 2.6 | L 2.38 | D 0.919 | V 1.49 | K 1.01 | G 1.03 | Q 1.69 | P 0.925 | M 2.11 | F 2.47 | N 1.04 | R 1.18 | E 2 | W 2.4

Variants of: B2
Assay: as above
Conditions: PBS, room temperature

Folding stability dG [kcal/mol], by site and new letter:
W37: A 2.24
L58: V 3.89
L43: Q 2.88
L8: T 1.24
L30: Y 2.27 | I 3.29
P10: Y 2.66
P51: M 1.59 | H 1.83
V6: E 2.18 | Q 2.01
N59: M 3.64 | H 3.98
K28: A 3.21
A39: W -0.54 | M 1.64
K57: L 3.61
G2: L 3.21
S41: H 2.95
W36: K 3.49
K38: A 1.72
I14: N 3.02
Q1: F 3.8 | N 3.69
E32: N 3.83
L42: H 1.02 | V 1.88 | Y 2.14
I50: L 1.58
D17: C 4.33
H15: D 2.54 | S 3.26 | R 3.93 | F 3.5
I4: C 2.58
K46: F 2.48
S52: D 1.16 | H 2.96 | T 2.23
S20: A 2.64
V5: A 2.41 | H 1.41 | S 0.271
M27: I 1.74
Y54: R 2.74 | W 2.19
H33: P 1.43
P16: K 3.4 | H 2.92 | R 2.87
A56: H 3.07 | T 3.8
K26: G 1.11
E25: R 0.331 | V -0.121
E31: H 2.63
G13: E 1.2
V55: K 0.066
